Results on 21 sequences are retold here after the DeepSol protein solubility set.

This data set is described as follows: soluble on expression in E. coli; label from the status in PepcDB or PDB records.
For the sequence “MGHHHHHHSHGVSAAVTSMSVPTPIYQTSSGQYIAIAPNGALQLASPGTDGVQGLQTLTMTNSGSTQQGTTILQYAQTSDGQQILVPSNQVVVQTASGDMQTYQIRTTPSATSLPQTVVMTSPVTLTSQTTKTDDPQLKREIRLMKNREAARECRRKKKEYVKCLENRVAVLENQNKTLIEELKTLKDLYSNKS”, the “soluble on expression in E. coli” value is given as “not soluble”. The same measure for “MGSDKIHHHHHHMENKLLVFLEAIQQHNSMTKAAQSLFISQPYISRTIKSAETHFGTPLIDRGHHPLELTYAGERLLTYLQSDARLHQRMNTELKEISQNKYQSMTIGITPPMANAWFSQTLPAFYQRFPNIRTKILEITTSKAETLLASHQLDFFIGKTIHQTNVKTIPLQTISLSLVIPKTAGIYQSNQFWRPFTPTILTGMTGEPVIRAVGEARFQELVDHYFADKGIQTIPLIEVDNSRFALSLTLQGLGSIVLATAMLARLATEPAKYPINAFKLPTSELSLDFSIAYLPSHVLAKPIAYLVEQACQTFNPAIDF”: “not soluble”. The value for “IKDFNYRIGFNLYDSQSEITKFNNETNLLGTYRKGQKIGEIWGYVTDRFYREDDFNADGTLKEGIPIPKGVGKVYPGDILYKNFDDDASTIWSGKGTADDPGDQRIIGNSTPRFHYGINAGLSWKGFDLSVFLRGVGKRDFWRTDQIAWPTGTWGSLFKETLDFWTPEHTDAYFPRVYANNGVNTASNRWKQTKYLANAAYLKLQNITLSYTLPKTWAKQICFDEVKVFFSGENLHTWDHLPEGLESDMLSKGAWEYPFMKKFSLGFNVTF” was “not soluble”. “MMLAISEIRKHPDGLSFDRLCDVKSMLLERDQQIIDIKAVKAVGNVRYDKGLYLLDYQLSYEVILPSSRSMVPVCLSEVQHIQELFIEATDLADKKELVEDNLVLVLDKDAINLEESIVDNILLAIPVQVLTEEEKKSKELPAGQNWAVLTEEDYQCLKEEKQKENNPFASLQGLFDE”: the “soluble on expression in E. coli” value is recorded as “not soluble”.

As for “TVRLMVDLRHHAAMLEEENDERTRAEQKLAETNVFLNSVVDGVAEPMVVVGLDRRVIMTNRAARDFFQISDVGSDEACHRLIHHRDTPCVREEGMQCPLLDVRTAKRPVIATQEHRDRSGDKRVVEVMTSPLLGSD”, the “soluble on expression in E. coli” value is listed as “not soluble”. The value for “MGSDKIHHHHHHMIVVLKPGSTEEDIRKVVKLAESYNLKCHISKGQERTVIGIIGDDRYVVADKFESLDCVESVVRVLKPYKLVSREFHPEDTVIDLGDVKIGNGYFTIIAGPCSVEGREMLMETAHFLSELGVKVLRGGAYKPRTSPYSFQGLGEKGLEYLREAADKYGMYVVTEALGEDDLPKVAEYADIIQIGARNAQNFRLLSKAGSYNKPVLLKRGFMNTIEEFLLSAEYIANSGNTKIILCERGIRTFEKATRNTLDISAVPIIRKESHLPILVDPSHSGGRRDLVIPLSRAAIAVGAHGIIVEVHPEPEKALSDGKQSLDFELFKELVQEMKKLADALGVKVN” was “soluble”; that for “MGSDKIHHHHHHMAELQEVQITEEKPLLPGQTPETAKEAELAARILLDQGQTHSVETPYGSVTFTVYGTPKPKRPAIFTYHDVGLNYKSCFQPLFRFGDMQEIIQNFVRVHVDAPGMEEGAPVFPLGYQYPSLDQLADMIPCILQYLNFSTIIGVGVGAGAYILSRYALNHPDTVEGLVLINIDPNAKGWMDWAAHKLTGLTSSIPDMILGHLFSQEELSGNSELIQKYRGIIQHAPNLENIELYWNSYNNRRDLNFERGGETTLKCPVMLVVGDQAPHEDAVVECNSKLDPTQTSFLKMADSGGQPQLTQPGKLTEAFKYFLQG” was “not soluble”; that for “GSKVEDPKDFPSELLSFLSHAVFSNRTLACFAIYTTKEKAALLYKKIMEKYSVTFISRHNSYNHNILFFLTPHRHRVSAINNYAQKLCTFSFLICKGVNKEYLMYSALTRDPFSVIEESLPGGLKEHDFNPESS” was “soluble”. “MGSDKIHHHHHHMDDDSNQKPLFHMALGVLTSLTPPQHHIELVDEHFHDKINYDGDYDMVGITSRTIEATRAYEIADEFRKRGKTVVLGGLHISFNPEEAAAHADCIVVGEADNLWTTLLDDVANNRLKERYDSKDFPPVKAITPLDYARIAKASKRTKVDGTKSIPIYVTRGCPFNCSFCVTPNFTGKQYRVQDPKLLKHQIEEAKKYFFKANGKNSKPWFMLTDENLGINKKKLWESLDLLKECDITFSVFLSINFLEDPTTVKKLVDAGCNFVLAGLESIKQSTLEAYNKGHVNSAEKYSKIIEDCRKAGLNIQGNFLFNPAIDTFEDIDELVQFVKKNHIFMPIFQIITPYPGTQMYHEYRESGLITIEDWEKYNALHLVIKSDRYEPLLFQYKVLKSYVEVYTWKEILLRTLYNPRKLINLVTSIAFKKHLAAQLKAFERNHKMNPAMLSGVKPVMNG”: the “soluble on expression in E. coli” value is listed as “not soluble”. Take “MSIQKLLSKARKAIQDFDMIQENDKIAVGLSGGKDSLTLLHILKSYQRFSPQNFELIAITLNTGGVDNSPLDKLCKEINVPFYEFQTDIKEIVFDIRQEKNPCALCANLRRGALNDNAKKLGCNKVALGHHKDDAIETFLMSMFYEGRVNCFSPKTYLDRQDLTVIRPMVYIEEYMTKKISKDSNYPIITNPCPANGHTRREYIKNLIANLNKEMPDFKRNVFGALNNSEKLFIWDKEKIKNFK”: the “soluble on expression in E. coli” value was “not soluble”. For “MSLSFKGFKVVMLILLSTQSYASKLASSIVCDSTIENPCIVQDSKTQFSPVIRYREVASIADVYGGNITGINKFHLSGSEQPSEKGWEAIAESISRKMGAETKKVIVLDLRQESHGYLNGRAITLVSAYNWINLGKSNSQSTLDQENWLAGLRSRKIVNGVLTVPQYVAKQYSQGKSMVVSTVKNEEYYVYKKGFDYYRIFISDHRAPLDSEVDALVALIKNNPEDTWYHVHCRGGKGRTTTVFAMFDMLKNADKVSFEEIIARQASIPPFYNLMVTNREIPELTPYYEQRLQFLIHFYEFARQSLMGYSGTWSEWKKLNEGHHHHHH”, the “soluble on expression in E. coli” value is “soluble”. The same measure for “MGSDKIHHHHHHMNALQFQKKLLSMQENMMNFALMLTANRDDAQDLMQDTTLKVLDNQEKFVDNINFKGWVLTVMRNIFINNYHKIVRTQTVVDQGVDLYNLDVVNDSGFDSPDGAYQIQEITKAINGLNNELKVPFSMFLSGYKYNEIADKLDVPLGTVKSRIFFARQELQKVLKDFRQG”: “not soluble”; for “MYETIVSSRGSSFFVSQGKTGEQVYRCQVNREQCPNTLPIDKHIDLVRKYIRAFLYRFAGMTSLNETSSRRMIFLVVPSFCVIEIIP”: “not soluble”; for “ATDMWLERAADVSWEAGAAITGTSERLDVQLDDDGDFHLLNDPGVGGGGSGGGGGGVFWDTPSPKVYPKGDTTPGVYRIMARGILGRYQAGVGVMHEGVFHTLWHTTRGAAIMSGEGRLTPYWGNVKEDRVTYGGPWKLDQKWNGVDDVQMIVVEPGKPAINVQTKPGIFKTAHGEIGAVSLDYPIGTSGSPIVNSNGEIIGLYGNGVILGNGAYVSAIVQGERVEEPVPEAYNPEMLKKRQLTVLDLHPGAGKTRRILPQIIKDAIQKRLRTAVLAPTRVVAAEMAEALRGLPVRYLTPAVQREHSGNEIVDVMCHATLTHRLMSPLRVPNYNLFVMDEAHFTDPASIAARGYIATRVEAGEAAAIFMTATPPGTSDPFPDTNSPVHDVSSEIPDRAWSSGFEWITDYAGKTVWFVASVKMSNEIAQCLQRAGKRVIQLNRKSYDTEYPKCKNGDWDFVITTDISEMGANFGASRVIDCRKSVKPTILDEGEGRVILSVPSAITSASAAQRRGRVGRNPSQIGDEYHYGGGTSEDDTMLAHWTEAKILLDNIHLPNGLVAQLYGPERDKTYTMDGEYRLRGEERKTFLELIKTADLPVWLAYKVASNGIQYNDRKWCFDGPRSNIILEDNNEVEIITRIGERKVLKPRWLDARVYSDHQSLKWFKDFAAGKR”: “soluble”. The same measure for “MARVLVVDDAAFMRMLLKKILTQAGHEVVGEASNGKEAVEKYKQLKPDLVTMDIVMPEMDGITAVKEIMKIDPNAKIIMITAVGQEAKVMEALKSGAKGYIVKPFQAQKVIEEVNRVLSS”: “soluble”; for “MTAPHDVPDLTGSGEYLVPDVLQPGLTLVLVGTAPSGISARARAYYANPENKFWRTLHAVGLTPRQLVPQEYATLPQYGLGLTDVAKRHSGVDAALPGEAWRPDELRRKVEHYRPRIVAFTSKRGASETLGVPTGKLPYGPQPQPLDWPAETELWVLPSTSPLGHNHFRLEPWQALGDRVRELRGAAEAGNPSPETPVL”: “soluble”. The same measure for “MDKVIFYSNIRNLIFKKCSIQFLIINDTVAHKEQVAMREMNQLVNTEDSAWPIIQNWLKDATNHTELLPVNKDLAETALYQLQVTTKSPMGALVYGSGGLLIDNGLEHHHHHH”: “not soluble”. Take “GPEQAMYSFMTYYIAMKTIDAVIQGLDETKAVIIVSEQYDEISDAILHRLGRGTTKLKGKGGYTDEEKDVIYAVVTRLEVTKLKSIVFEVDQNAFITIMNTHETRGGKFKNAIH”: the “soluble on expression in E. coli” value is “not soluble”. The value for “MGSDKIHHHHHHMKCVVCGKNEAVEHGVCSQCLFDRANIENIGNVNIAICPKCGSVRIGKKWYREDYADHLLPLIMDEVKCSDPEAKISGDPKSVYFDESNRNLVLKVNITRDHMDPKVQTVSVPYSVNYISCPTCNKLTGSYFEATIQLRTVSTKYDEILSEVLDSIEKIMEKRRKMDASSFISKIERKPEGVDIYLGKKGDGDLVSSFILDHYFATLIVSKSLAGVKEGRKFFRFTYSLRILDAPEGAIVSVDKRKYILTAIRNRHIDVIDVETEERGRINRNVFFSNDGKIVTKEPQVKNFIVISRTEDESQIMDSQTFKIITIKGRAEGNEIRVFTYRGKYFI” was “not soluble”. Consider “MKKERVDVLAFNQGLFETREKAKRSVMAGLVYNDKNERLDKPGEKISVETPLHTKGQVMPYVSRGGLKLEKALNVFAINVQGKTMLDIGSSTGGFTDVALQNGARLSYALDVGYNQLAWKIRQDERVVVMERTNFRYSKPEDFTEGVPDIATIDVSFISLRLILPPLHDILKKGGSVVALIKPQFEAGKEFVGKKGIVRDPETHQMVVEEITRFAMNNGYDVKNLDFSPITGGEGNIEFLAHLVSVEGEGSYQAPESIEEVVAHAHQKLAE”, for which the “soluble on expression in E. coli” value is recorded as “not soluble”. With “FMAKLTSAVPVLTARDVAGAVEFWTDRLGFSRDFVEDDFAGVVRDDVTLFISAVQDQVVPDNTLAWVWVRGLDELYAEWSEVVSTNFRDASGPAMTEIGEQPWGREFALRDPAGNCVHFVAEEQD”, the “soluble on expression in E. coli” value is reported as “soluble”.
